Test results: patent publication US12194080B2, “Methods for identification, assessment, prevention, and treatment of metabolic disorders using PM20D1 and N-lipidated amino acids” (Dana-Farber Cancer Institute, Inc., priority 2015, dated 2025)
“Also recorded” adds a separate entry of the source.

How the values were obtained:
mouse PM20D1 [1] = molecular target: T1, mouse PM20D1 (Mus musculus, UniProt Q8C165); experiment: In vitro PM20D1-catalyzed N-acyl amino acid hydrolysis; assay type: biochemical; details: PBS, 37° C., 1.5 h
T1 construct: Full-length mouse Pm20d1 cDNA (GE Dharmacon) was subcloned with an in-frame C-terminal 6× His and FLAG® tag; made in house; host or cells: 293A (HEK293A) cells stably infected with retrovirus
T1 sequence (Q8C165 25-503): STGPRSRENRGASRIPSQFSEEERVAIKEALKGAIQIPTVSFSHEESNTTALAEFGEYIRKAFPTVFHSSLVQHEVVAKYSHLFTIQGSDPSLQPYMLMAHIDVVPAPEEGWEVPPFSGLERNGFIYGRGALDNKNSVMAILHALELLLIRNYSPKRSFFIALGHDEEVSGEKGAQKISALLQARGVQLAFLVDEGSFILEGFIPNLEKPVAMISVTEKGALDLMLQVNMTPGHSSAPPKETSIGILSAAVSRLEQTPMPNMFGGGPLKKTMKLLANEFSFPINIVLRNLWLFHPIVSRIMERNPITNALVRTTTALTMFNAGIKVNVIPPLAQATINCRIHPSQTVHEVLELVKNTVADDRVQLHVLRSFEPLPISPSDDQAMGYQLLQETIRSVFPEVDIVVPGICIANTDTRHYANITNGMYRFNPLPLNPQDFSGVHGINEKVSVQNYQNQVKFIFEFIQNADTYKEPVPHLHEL
Procedure: (§1) The concentrated media was centrifuged to remove debris (600×g, 10 min, 4° C.) and the supernatant containing PM20D1-flag was decanted into a new tube. PM20D1-Flag was immunoaffinity purified overnight at 4° C. from the concentrated media using magnetic Flag-M2 beads (Sigma Aldrich). The beads were collected, washed three times in PBS, eluted with 3× Flag peptide ([…] in PBS, Sigma Aldrich), aliquoted, and stored at −80° C. For the purification of human PM20D1-flag, hPM20D1-flag plasmid (Origene) was transiently transfected into 293A cells. After two days, the media was changed, harvested 24 h later, concentrated, and purified exactly as described above.
(§2) In vitro PM20D1-catalyzed synthesis of N-acyl amino acids was measured by incubating purified PM20D1 protein with oleate (1.5 mM) and phenylalanine (0.1 mM) in PBS (to 100 μl final volume) at 37° C. for 1.5 hrs. In vitro PM20D1-catalyzed N-acyl amino acid hydrolysis was measured by incubating purified PM20D1 protein with the indicated N-acyl amino acid (0.1 mM) in PBS (to 100 μl final volume) at 37° C. for 1.5 hrs. Reactions were terminated by placing the vials at −80° C. and the products generated in vitro were analyzed by mass spectroscopy (MS).
(§3) Briefly, frozen serum (30 μl) for polar metabolomic analyses were extracted in 160 μl of 1:1 acetonitrile/methanol with inclusion of internal standard D3, ^15N-serine (1 nmol). Activity assays (100 μl) were extracted in 400 μl 1:1 acetonitrile/methanol. Following 30 s of thorough vortexing and 1 min of bath sonication, the polar metabolite fraction (supernatant) was isolated by centrifugation at 13,000×g for 10 min. Ten μl of this supernatant was analyzed by SRM-based targeted LC-MS/MS, or untargeted LC-MS.
(§4) For separation of polar metabolites, normal-phase chromatography was performed with a […] column (50 mm×4.60 mm, Phenomenex). Mobile phases were as follows: Buffer A, acetonitrile; Buffer B, 95:5 water/acetonitrile with 0.1% formic acid or 0.2% ammonium hydroxide with 50 mM ammonium acetate for positive and negative ionization mode, respectively. The flow rate for each run started at 0.2 ml/min for 2 min, followed by a gradient starting at 0% B and increasing linearly to 100% B over the course of 15 min with a flow rate of 0.7 ml/min, followed by an isocratic gradient of 100% B for 10 min at 0.7 ml/min before equilibrating for 5 min at 0% B with a flow rate of 0.7 ml/min. MS analysis was performed with an electrospray ionization (ESI) source on an Agilent 6430 QQQ LC—MS/MS. The capillary voltage was set to 3.5 kV, and the fragmentor voltage was set to 100 V. The drying gas temperature was 325° C., the drying gas flow rate was 10 l/min, and the nebulizer pressure was 45 psi. For polar targeted and untargeted metabolomic analysis, representative metabolites were quantified by SRM of the transition from precursor to product ions (corresponding to amino acid fragment) at associated collision energies. Several representative fragmentation ions are as follows: C18:1-Ala, 352>88; C18:1-Gly, 338>74; C18:1-Phe, 428>164; C18:1-Leu/Ile, 394>130; C20:4-Phe, 450>164; C20:4-Leu/Ile, 416>130. Untargeted LC-MS was performed by scanning a mass range of m/z 50-1200, and data were exported as mzdata files and uploaded to XCMSOnline (xcmsserver.nutr.berkeley.edu) to identify metabolites that were differentially changed. For targeted metabolomics analysis, metabolites were quantified by integrating the area under the peak and were normalized to internal standard values corresponding to 1 nmol D3, ^15N-serine.

mouse PM20D1 [2] = molecular target: T1, mouse PM20D1; experiment: In vitro PM20D1-catalyzed synthesis of N-acyl amino acids; assay type: biochemical; details: PBS, 37° C., 1.5 h
Procedure: as §1, §2, §3, §4

APOA1 = experiment: FLAG immunoprecipitation of PM20D1-flag from primary brown fat cells with mass spectrometry identification; assay type: binding, mouse
Description: The mass spectrometry identification of the indicated proteins (PM20D1 or APOA1) are indicated to the right of the gel.

B1: PM20D1: purified recombinant C-terminal 6xHis/flag-tagged mouse peptidase M20 domain containing 1, a secreted enzyme (protein, listed as Homo sapiens)
chain: MAQRCVCVLALVAMLLLVFPTVSRSMGPRSGEHQRASRIPSQFSKEERVAMKEALKGAIQIPTVTFSSEKSNTTALAEFGKYIHKVFPTVVSTSFIQHEVVEEYSHLFTIQGSDPSLQPYLLMAHFDVVPAPEEGWEVPPFSGLERDGIIYGRGTLDDKNSVMALLQALELLLIRKYIPRRSFFISLGHDEESSGTGAQRISALLQSRGVQLAFIVDEGGFILDDFIPNFKKPIALIAVSEKGSMNLMLQVNMTSGHSSAPPKETSIGILAAAVSRLEQTPMPIIFGSGTVVTVLQQLANEFPFPVNIILSNPWLFEPLISRFMERNPLTNAIIRTTTALTIFKAGVKFNVIPPVAQATVNFRIHPGQTVQEVLELTKNIVADNRVQFHVLSAFDPLPVSPSDDKALGYQLLRQTVQSVFPEVNITAPVTSIGNTDSRFFTNLTTGIYRFYPIYIQPEDFKRIHGVNEKISVQAYETQVKFIFELIQNADTDQEPVSHLHKL
modifications: C-terminal 6xHis/flag tag
notes: purified recombinant C-terminal 6xHis/flag-tagged mouse peptidase M20 domain containing 1, a secreted enzyme
With B1 the “conversion in the hydrolase direction” value (mouse PM20D1 [1]; C18:1-Phe 100 μM, n=3) was 94.0±0.8%, the “N-acyl amino acid hydrolase activity” value (mouse PM20D1 [1]; C18:1-Phe as substrate) was “possessed enzymatic activity” and the “conversion in the synthase direction” value (mouse PM20D1 [2]; oleate 1.5 mM, Phe 100 μM, n=3) was 1.2±0.1%. For the same molecule, the “N-acyl amino acid synthase activity” value (mouse PM20D1 [2]; oleate and Phe as substrates) was “Significant formation of C18:1-Phe; also recorded: possessed enzymatic activity” and the “interaction with apolipoprotein 1 (APOA1)” value (APOA1) was “interacts with apolipoprotein 1 (APOA1)”.
